T1: full-length human SIRPγ EN→DD on Expi-CHO cells (human, UniProt Q9P1W8 29-387)
T1 construct: the entry already carries the change (PENV to PDDV)
T1 chain: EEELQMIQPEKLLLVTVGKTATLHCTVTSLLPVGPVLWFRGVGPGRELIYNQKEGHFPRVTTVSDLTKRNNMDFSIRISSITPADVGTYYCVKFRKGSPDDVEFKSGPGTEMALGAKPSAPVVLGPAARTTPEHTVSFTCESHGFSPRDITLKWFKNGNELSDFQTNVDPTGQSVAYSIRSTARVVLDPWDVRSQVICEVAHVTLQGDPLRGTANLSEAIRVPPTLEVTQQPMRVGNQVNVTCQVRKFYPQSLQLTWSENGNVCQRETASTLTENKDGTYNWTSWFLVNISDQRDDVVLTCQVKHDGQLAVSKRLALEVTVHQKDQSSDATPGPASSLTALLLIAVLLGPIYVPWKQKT


Tests used:
[1] = biological target: T2, full-length human SIRPβ1 (NP_006056.2) on cells (human, UniProt O00241 30-398); assay: flow cytometry, U937 SIRPα-KO transfectants
T2 construct: also called β1 WT
Protocol: Antibody binding to cells expressing full-length human SIRPβ1 (NP_006056.2) and SIRPβL (NP_001129316.1) is evaluated by flow cytometry. SIRPβ1- or SIRPβL-expressing U937^{SIRPα KO} cells are blocked with donkey IgG and incubated on ice with increasing concentrations of antibodies for 60 minutes, washed and stained with AF647-conjugated donkey F(ab′)₂ anti-human IgG secondary reagent. Cells are washed, fixed, and analyzed by flow cytometry. Median fluorescent intensity is determined and used as a measure of antibody binding.

[2] = biological target: T3, recombinant human SIRPγ extracellular domain (ECD)/His protein (NP_061026.2) (human, UniProt Q9P1W8 29-360); assay: ELISA, immobilised His-tagged human SIRPγ extracellular domain (average fluorescence)
T3 construct: coated on ELISA plates; also called recombinant hSIRPγ; not shown: His-tag
Protocol: A biochemical ELISA-based assay is utilized to evaluate the binding of antibodies to SIRPγ. Black, 96-well flat-bottom immunoassay plates are coated with recombinant human SIRPγ extracellular domain (ECD)/His protein (NP_061026.2) diluted in DPBS and incubated overnight at 4° C. […] Plates are washed and serially titrated antibodies are added to respective wells for an incubation of about 1-2 h at RT. After the incubation, the plates are washed and HRPO-conjugated mouse anti-human IgG secondary reagent (Jackson Immuno Research) is added to each well and incubated for about 1-2 hours. Following the final plate washing, Amplex™ red substrate is added and incubated at RT in the dark for 15-30 minutes. Fluorescence is detected (λEx/λEm=530/590 nm) using EnVision Multilabel Plate Reader (Perkin Elmer). Average fluorescence is plotted for measuring the antibody binding.

[3] = biological target: T4, full-length human SIRPγ E→D on Expi-CHO cells (human, UniProt Q9P1W8 29-387); assay: flow cytometry, Expi-CHO cells expressing full-length human SIRPγ E→D
T4 construct: the entry already carries the change (PENV to PDNV)
Protocol: (§1) Expi-CHO parental cells are transduced with lentiviruses containing either full-length wild-type human SIRPγ ([…]) or full-length human SIRPγ with amino acid point mutations (Table 64) and sorted to achieve matching expression levels. These cells are blocked with donkey IgG and incubated on ice with increasing concentrations of antibodies for 60 minutes, washed and stained with AF647-conjugated donkey F(ab′)₂ anti-human IgG antibodies. Stained cells are washed, fixed, and analyzed by flow cytometry. Median fluorescent intensity is determined and used as a measure of antibody binding.

[4] = biological target: T5, full-length human SIRPγ N→D on Expi-CHO cells (human, UniProt Q9P1W8 29-387); assay: flow cytometry, Expi-CHO cells
T5 construct: the entry already carries the change (PENV to PEDV)
Protocol: as §1

[5] = biological target: T1, full-length human SIRPγ EN→DD on …; assay: flow cytometry, Expi-CHO cells
Protocol: as §1

[6] = biological target: T6, full-length human SIRPαV2 (CAA71403.1) on cells (human, UniProt P78324 31-504); assay: flow cytometry, competition with CD47 tetramer, CHO-K1 cells
T6 construct: one molecule for CHO-K1 and Expi-CHO transfectants (CAA71403.1) and for endogenous V2 on THP-1 cells and on CD14+ monocytes of V2/V2 donors; also called CHO-hSIRPαV2; αV2 WT
Protocol: (§2) Cells are washed, fixed, and analyzed by flow cytometry. Median fluorescent intensity is determined and used as a measure of CD47 binding.

[7] = biological target: T7, full-length human SIRPαV1 (NP_542970.1) on cells (human, UniProt P78324 31-504); assay: as above
T7 construct: one molecule for CHO-K1 and Expi-CHO transfectants (NP_542970.1) and for endogenous V1 on U-937 cells and on CD14+ monocytes of V1/V1 donors; also called CHO-hSIRPαV1; αV1 WT
Protocol: as §2

[8] = biological target: T6, full-length human SIRPαV2 (CAA71403.1) …; assay: flow cytometry, competition with CD47 tetramer, monocytes V2V2
Protocol: Cells are washed, fixed, and analyzed by flow cytometry. Median fluorescent intensity of CD14+gated population is determined and used as a measure of CD47 binding.

[9] = biological target: T6, full-length human SIRPαV2 (CAA71403.1) …; assay: flow cytometry, CHO-K1 cells
Protocol: (§3) Antibody binding to cells expressing SIRPα is evaluated by flow cytometry. CHO-K1 parental cells (negative control), CHO-K1 cells expressing full-length human SIRPαV1 (NP_542970.1) or CHO-K1 cells expressing full-length human SIRPαV2 (CAA71403.1) are blocked with donkey IgG and incubated on ice with increasing concentrations of antibodies for 60 minutes, washed and stained with AF647-conjugated donkey F(ab′)₂ anti-human IgG secondary reagent. Cells are washed, fixed, and analyzed by flow cytometry. Median fluorescent intensity is determined and used as a measure of antibody binding.

[10] = biological target: T7, full-length human SIRPαV1 (NP_542970.1) …; assay: flow cytometry, CHO-K1 cells
Protocol: as §3

[11] = biological target: T6, full-length human SIRPαV2 (CAA71403.1) …; assay: flow cytometry, THP-1 cells (endogenous V2)
Protocol: Antibody binding to human monocytic cell lines homozygous for the V1-allele (U-937) or the V2-allele (THP-1) of SIRPα is assessed. U-937 or THP-1 cells are blocked with donkey IgG and incubated on ice with increasing concentrations of antibodies for 60 minutes, washed and stained with AF647-conjugated donkey F(ab′)₂ anti-human IgG secondary reagent. Cells are washed, fixed, and analyzed by flow cytometry. Median fluorescent intensity is determined and used as a measure of antibody binding.

Row | Binder | EC50 [1] | binding result [2] | binding result [3] | EC50 [4] | EC50 [5] | IC50 [6] | IC50 [7] | IC50 [8] | EC50 [9] | EC50 [10] | EC50 [11]
1 | Antibody A (antibody, human IgG1, kappa, L234A L235A) heavy: not shown light: DIQMTQSPSSLSASVGDRVTITCRASQDINNYLAWFQQKPGKAPKSLIYTASSLHSGVPSKFSGSGSGTDFTLTISSLQPEDFATYYCQQYVSYPYTFGQGTKLEIKRTVAAPSVFIFPPSDEQLKSGTASVVCLLNNFYPREAKVQWKVDNALQSGNSQESVTEQDSKDSTYSLSSTLTLSKADYEKHKVYACEVTHQGLSSPVTKSFNRGEC | 0.2 nM | no binding (tested: about 67 nM) | no binding (tested: about 67 nM) | 0.4 nM | 0.6 nM |  |  |  |  |  | 
2 | Antibody C (antibody, human IgG1, kappa, L234A L235A, V domains shown) VH: EVQLVESGGGLVQPGGSLRLSCAASGFTFSSYDMHWVRQATGKGLEWVSVIGIAGDTYYPGSVKGRFTISRENAKNSLYLQMNSLRVGDTAVYYCARGGSWDDAFDIWGQGTMVTVSS VL: DIQMTQSPSSLSASIGDKVTITCRASQDINNYLAWFQQKPGKAPKSLIYTASSLQSGVPSKFSGSGSGTDFTLTISSLQPEDFATYYCQQYVSYPYTFGQGTKLEIKR | 0.5 nM |  |  |  |  | 0.3 nM | 0.7 nM | 0.05 nM | 0.5 nM | 1 nM | 0.3 nM
3 | Antibody A10 (antibody, human IgG1, kappa, L234A L235A) heavy: not shown light: DIQMTQSPSSLSASVGDRVTITCRASQDINNYLAWFQQKPGKAPKSLIYTASSLHSGVPSKFSGSGSGTDFTLTISSLQPEDFATYYCQQYVSYPYTFGQGTKLEIKRTVAAPSVFIFPPSDEQLKSGTASVVCLLNNFYPREAKVQWKVDNALQSGNSQESVTEQDSKDSTYSLSSTLTLSKADYEKHKVYACEVTHQGLSSPVTKSFNRGEC | 0.2 nM |  | no binding (tested: about 67 nM) | 0.5 nM | 0.7 nM |  |  |  |  |  | 
4 | Antibody D (antibody, human IgG1, kappa, L234A L235A, V domains shown) VH: EVQLVESGGGLVQPGGSLRLSCAASGFTFSSFDMHWVRQPTGKGLEWVSTIGIAGDTYFPGSVKGRFTISRENAKNSLYLQMNSLRAGDTAVYYCARGGNWDDALDIWGQGTMVTVSS VL: DIQMTQSPSSLSASVGDRVTITCRASQDINNYLAWFQQKPGKAPKSLIYTASSLQSGVPSKFSGSGSGTDFTLTISSLQPEDFATYYCQQYNTYPYTFGQGTKLEIKR | 0.4 nM | no binding (tested: about 67 nM) |  | 0.3 nM | 0.3 nM | 0.3 nM | 0.6 nM | 0.05 nM | 0.5 nM | 0.7 nM | 0.3 nM
5 | Anti-SIRPα antibody KWAR23 (antibody, V domains shown) VH: EVQLQQSGAELVKPGASVKLSCTASGFNIKDYYIHWVQQRTEQGLEWIGRIDPEDGETKYAPKFQDKATITADTSSNTAYLHLSSLTSEDTAVYYCARWGAYWGQGTLVTVSS VL: QIVLTQSPAIMSASPGEKVTLTCSASSSVSSSYLYWYQQKPGSSPKLWIYSTSNLASGVPARFSGSGSGTSYSLTISSMEAEDAASYFCHQWSSYPRTFGAGTKLELK | 0.2 nM |  |  | 0.3 nM | 0.3 nM | 0.6 nM | 0.9 nM | 0.11 nM | 0.5 nM | 1 nM | 0.2 nM
6 | Antibody B (antibody, human IgG1, kappa, L234A L235A, V domains shown) VH: QVQLVQSGAEVKKPGASVKVSCKASGYTFTGNYMHWVRQAPGQGLEWMGWINPNSGGTNYAQKFQGRVTMTRDTSISTAYMELSRLRSDDTAVYYCVSGSGWYENYYYYGMDVWGQGTTVTVSS VL: DIQMTQSPSSVSASVGDRVTITCRASQGISSWLAWYQQKPGKAPKLLIYAESSLQSGVPSRFSGSGSGTDFTLTISSLQPEDFATYYCQQANSFPLTFGGGTKVEIKR |  | no binding (tested: about 67 nM) |  | 4.8 nM | 5.3 nM | 6 nM | 5.6 nM | 4.6 nM | 14.2 nM | 12 nM | 22.3 nM
7 | Antibody E (antibody, human IgG1, kappa, L234A L235A) heavy: not shown light: DIVMTQSPLSLPVTPGEPASISCKSSQSLLYSNGYNYLDWYLQRPGQSPQLLIYLGSNRASGVPDRFSGSGSGTDFTLKISRVEAEDVGVFYCMQALQTPLTFGGGTKVEIKRTVAAPSVFIFPPSDEQLKSGTASVVCLLNNFYPREAKVQWKVDNALQSGNSQESVTEQDSKDSTYSLSSTLTLSKADYEKHKVYACEVTHQGLSSPVTKSFNRGEC |  | no binding (tested: about 67 nM) | no binding (tested: about 67 nM) |  |  |  | 0.7 nM |  | 0.9 nM | 2 nM | 0.4 nM
8 | Antibody E22 (antibody, human IgG1, kappa, L234A L235A, V domains shown) VH: QVQLQESGPGLVKPSETLSLTCTVSGGSIRDYYWSWIRQPPGKGLEWIGFIYYNGRTFYQSSLKSRVTISLDTSKNQFSLKMTSVTAADTAVYYCARVRAYSGIGLDGTDVWGQGTTVTVSS VL: DIVMTQSPLSLPVTPGEPASISCRSSQSLLYSTGYTYLDWYLQRPGQSPQLLIYGGSSRASGVPDRFSGSGSGTDFTLKISRVEAEDVGVFYCGQALQTPLTFGQGTKVEIKR |  |  | no binding (tested: about 67 nM) |  |  |  |  | 0.3 nM |  |  | 

Source: patent US20230012273A1 (Boehringer Ingelheim, published 2023)
